Laboratory results published in the supplement of paper PMC10567573.

B1: ZNF193 (parent)
chain: QKRYHCKECGKVFSQSAGLIQHQR
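Also: lentivirally expressed fusions sorted by FACS into six bins by GFP to DsRed ratio, PSI derived from sequencing read proportions per bin multiplied by bin number.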

Variants of: B1
Assay: protein stability index of a GFP-peptide fusion (GPS, HEK-293T) (PSI 1-6); higher = more stable
Details: c terminus: a fixed tail appended
QKRNHCKECGKVFSQSAGLIQHQR [Y4N] showed a protein stability index of 2.39. Work on QKRFHCKECGKVFSQSAGLIQHQR [Y4F] yielded a protein stability index of 2.72. With QKRTHCKECGKVFSQSAGLIQHQR [Y4T] the protein stability index was 1.97. In the case of QKRDHCKECGKVFSQSAGLIQHQR [Y4D], the protein stability index is reported as 2.48. Variant QKRAHCKECGKVFSQSAGLIQHQR [Y4A] has a protein stability index of 1.99. Variant QKREHCKECGKVFSQSAGLIQHQR [Y4E] has a protein stability index of 2.15. In the case of QKRWHCKECGKVFSQSAGLIQHQR [Y4W], the protein stability index is reported as 2.86. For QKRLHCKECGKVFSQSAGLIQHQR [Y4L], the protein stability index was 2.4. Work on QKRRHCKECGKVFSQSAGLIQHQR [Y4R] yielded a protein stability index of 1.98. Variant QKRMHCKECGKVFSQSAGLIQHQR [Y4M] has a protein stability index of 2.17. With QKRGHCKECGKVFSQSAGLIQHQR [Y4G] the protein stability index was 2.14. For QKRVHCKECGKVFSQSAGLIQHQR [Y4V], the protein stability index was 2.25. Work on QKRQHCKECGKVFSQSAGLIQHQR [Y4Q] yielded a protein stability index of 2.42. Work on QKRIHCKECGKVFSQSAGLIQHQR [Y4I] yielded a protein stability index of 2.4. QKRPHCKECGKVFSQSAGLIQHQR [Y4P] gave a protein stability index of 2.47. For QKRKHCKECGKVFSQSAGLIQHQR [Y4K], the protein stability index was 2.65. Work on QKRSHCKECGKVFSQSAGLIQHQR [Y4S] yielded a protein stability index of 2.11. With QKRYDCKECGKVFSQSAGLIQHQR [H5D] the protein stability index was 2.37. For QKRYSCKECGKVFSQSAGLIQHQR [H5S], the protein stability index was 2.94. QKRYCCKECGKVFSQSAGLIQHQR [H5C] showed a protein stability index of 3.34. QKRYRCKECGKVFSQSAGLIQHQR [H5R] showed a protein stability index of 3.9. For QKRYTCKECGKVFSQSAGLIQHQR [H5T], the protein stability index was 3.23. Variant QKRYICKECGKVFSQSAGLIQHQR [H5I] has a protein stability index of 3.91. QKRYFCKECGKVFSQSAGLIQHQR [H5F] gave a protein stability index of 3.01. Work on QKRYECKECGKVFSQSAGLIQHQR [H5E] yielded a protein stability index of 3.62. In the case of QKRYPCKECGKVFSQSAGLIQHQR [H5P], the protein stability index is reported as 3.1. Variant QKRYQCKECGKVFSQSAGLIQHQR [H5Q] has a protein stability index of 3.88. QKRYYCKECGKVFSQSAGLIQHQR [H5Y] gave a protein stability index of 3.29. Variant QKRYNCKECGKVFSQSAGLIQHQR [H5N] has a protein stability index of 2.77. Variant QKRYMCKECGKVFSQSAGLIQHQR [H5M] has a protein stability index of 4.01. For QKRYLCKECGKVFSQSAGLIQHQR [H5L], the protein stability index was 3.75. With QKRYWCKECGKVFSQSAGLIQHQR [H5W] the protein stability index was 2.98. Variant QKRYACKECGKVFSQSAGLIQHQR [H5A] has a protein stability index of 3.25. For QKRYKCKECGKVFSQSAGLIQHQR [H5K], the protein stability index was 3.92. In the case of QKRYVCKECGKVFSQSAGLIQHQR [H5V], the protein stability index is reported as 3.95. QKRYGCKECGKVFSQSAGLIQHQR [H5G] showed a protein stability index of 2.23. For QKRYHCKECAKVFSQSAGLIQHQR [G10A], the protein stability index was 1.96. With QKRYHCKEPGKVFSQSAGLIQHQR [C9P] the protein stability index was 3.04. With QKRYHCKEWGKVFSQSAGLIQHQR [C9W] the protein stability index was 2.58. QKRYHCKEDGKVFSQSAGLIQHQR [C9D] gave a protein stability index of 3.97. QKRYHCKEFGKVFSQSAGLIQHQR [C9F] showed a protein stability index of 2.17. In the case of QKRYHCKEMGKVFSQSAGLIQHQR [C9M], the protein stability index is reported as 2.63. With QKRYHCKEAGKVFSQSAGLIQHQR [C9A] the protein stability index was 3.45. QKRYHCKETGKVFSQSAGLIQHQR [C9T] gave a protein stability index of 3.27. In the case of QKRYHCKENGKVFSQSAGLIQHQR [C9N], the protein stability index is reported as 3.17. QKRYHCKEEGKVFSQSAGLIQHQR [C9E] showed a protein stability index of 3.64. Work on QKRYHCKEYGKVFSQSAGLIQHQR [C9Y] yielded a protein stability index of 2.7. Work on QKRYHCKEKGKVFSQSAGLIQHQR [C9K] yielded a protein stability index of 3.64. QKRYHCKESGKVFSQSAGLIQHQR [C9S] showed a protein stability index of 3.11. For QKRYHCKEIGKVFSQSAGLIQHQR [C9I], the protein stability index was 2.83. Variant QKRYHCKEQGKVFSQSAGLIQHQR [C9Q] has a protein stability index of 3.19. Variant QKRYHCKEHGKVFSQSAGLIQHQR [C9H] has a protein stability index of 3.13. Variant QKRYHCKEGGKVFSQSAGLIQHQR [C9G] has a protein stability index of 3.2. QKRYHCKEVGKVFSQSAGLIQHQR [C9V] gave a protein stability index of 3.07. QKRYHCKELGKVFSQSAGLIQHQR [C9L] gave a protein stability index of 2.52. Work on QKRYHCKERGKVFSQSAGLIQHQR [C9R] yielded a protein stability index of 3.38. In the case of QDRYHCKECGKVFSQSAGLIQHQR [K2D], the protein stability index is reported as 3.31. Work on QCRYHCKECGKVFSQSAGLIQHQR [K2C] yielded a protein stability index of 2.39. With QQRYHCKECGKVFSQSAGLIQHQR [K2Q] the protein stability index was 3.04. QNRYHCKECGKVFSQSAGLIQHQR [K2N] showed a protein stability index of 2.86. With QARYHCKECGKVFSQSAGLIQHQR [K2A] the protein stability index was 2.85. With QHRYHCKECGKVFSQSAGLIQHQR [K2H] the protein stability index was 3.06. For QMRYHCKECGKVFSQSAGLIQHQR [K2M], the protein stability index was 3.1. QIRYHCKECGKVFSQSAGLIQHQR [K2I] showed a protein stability index of 2.81. For QRRYHCKECGKVFSQSAGLIQHQR [K2R], the protein stability index was 2.76. In the case of QPRYHCKECGKVFSQSAGLIQHQR [K2P], the protein stability index is reported as 3.07. In the case of QFRYHCKECGKVFSQSAGLIQHQR [K2F], the protein stability index is reported as 2.31. In the case of QVRYHCKECGKVFSQSAGLIQHQR [K2V], the protein stability index is reported as 2.58. Work on QERYHCKECGKVFSQSAGLIQHQR [K2E] yielded a protein stability index of 3.08. QTRYHCKECGKVFSQSAGLIQHQR [K2T] gave a protein stability index of 2.24. In the case of QWRYHCKECGKVFSQSAGLIQHQR [K2W], the protein stability index is reported as 2.17. For QLRYHCKECGKVFSQSAGLIQHQR [K2L], the protein stability index was 2.81. For QGRYHCKECGKVFSQSAGLIQHQR [K2G], the protein stability index was 3.31. Work on QSRYHCKECGKVFSQSAGLIQHQR [K2S] yielded a protein stability index of 2.48. In the case of QYRYHCKECGKVFSQSAGLIQHQR [K2Y], the protein stability index is reported as 2.6. In the case of QKTYHCKECGKVFSQSAGLIQHQR [R3T], the protein stability index is reported as 3.59. Work on QKAYHCKECGKVFSQSAGLIQHQR [R3A] yielded a protein stability index of 3.18. Work on QKEYHCKECGKVFSQSAGLIQHQR [R3E] yielded a protein stability index of 3.26. In the case of QKCYHCKECGKVFSQSAGLIQHQR [R3C], the protein stability index is reported as 3.48. QKPYHCKECGKVFSQSAGLIQHQR [R3P] showed a protein stability index of 2.98. Variant QKVYHCKECGKVFSQSAGLIQHQR [R3V] has a protein stability index of 3.2. In the case of QKDYHCKECGKVFSQSAGLIQHQR [R3D], the protein stability index is reported as 2.35. For QKWYHCKECGKVFSQSAGLIQHQR [R3W], the protein stability index was 3.52. With QKKYHCKECGKVFSQSAGLIQHQR [R3K] the protein stability index was 3.23. For QKLYHCKECGKVFSQSAGLIQHQR [R3L], the protein stability index was 3.58. QKYYHCKECGKVFSQSAGLIQHQR [R3Y] gave a protein stability index of 3.52. In the case of QKGYHCKECGKVFSQSAGLIQHQR [R3G], the protein stability index is reported as 2.93. In the case of QKQYHCKECGKVFSQSAGLIQHQR [R3Q], the protein stability index is reported as 3.33. For QKMYHCKECGKVFSQSAGLIQHQR [R3M], the protein stability index was 3.23. In the case of QKSYHCKECGKVFSQSAGLIQHQR [R3S], the protein stability index is reported as 3.12. Work on QKFYHCKECGKVFSQSAGLIQHQR [R3F] yielded a protein stability index of 3.6. Variant QKIYHCKECGKVFSQSAGLIQHQR [R3I] has a protein stability index of 3.55. Work on QKHYHCKECGKVFSQSAGLIQHQR [R3H] yielded a protein stability index of 2.92. Work on QKNYHCKECGKVFSQSAGLIQHQR [R3N] yielded a protein stability index of 2.87.
